Results on one substance are retold here after patent US20220143024A1, “METHODS OF USING IMIPRIDONES” (Board of Regents, The University of Texas System, priority 2019, published 2022).

In experiment [1] the target is C20orf72 (human) (UniProt Q9BQP7). In words: BioID-MS.
Experiment [2] concerns the target NIPSNAP2 (human) (UniProt O75323). In words: BioID-MS.

Sequence of C20orf72 (human) (Q9BQP7 whole entry): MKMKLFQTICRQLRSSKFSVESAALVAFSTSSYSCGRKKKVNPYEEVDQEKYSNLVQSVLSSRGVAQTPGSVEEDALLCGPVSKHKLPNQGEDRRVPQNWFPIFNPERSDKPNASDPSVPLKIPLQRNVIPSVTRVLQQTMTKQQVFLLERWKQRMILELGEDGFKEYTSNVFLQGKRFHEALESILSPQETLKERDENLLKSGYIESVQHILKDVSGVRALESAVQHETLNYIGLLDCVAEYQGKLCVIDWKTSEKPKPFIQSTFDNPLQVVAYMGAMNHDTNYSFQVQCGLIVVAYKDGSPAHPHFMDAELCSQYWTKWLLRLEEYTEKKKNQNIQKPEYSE
Sequence of NIPSNAP2 (human) (O75323 24-286 limits assumed): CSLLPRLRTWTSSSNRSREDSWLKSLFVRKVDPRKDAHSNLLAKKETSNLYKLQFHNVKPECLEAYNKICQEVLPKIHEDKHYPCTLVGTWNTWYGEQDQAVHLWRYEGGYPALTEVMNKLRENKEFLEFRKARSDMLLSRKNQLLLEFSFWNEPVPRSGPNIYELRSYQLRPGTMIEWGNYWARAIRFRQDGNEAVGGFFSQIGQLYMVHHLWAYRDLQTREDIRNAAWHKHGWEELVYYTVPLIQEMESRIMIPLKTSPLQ

“FlagBirA-ClpP (Y118A) (from UniProt P06709 1-321; Q16740 57-277) (enzyme)”: the Log2 Fold change (vs control) came out at 0.12 log2 in experiment [1] and 0.61 log2 in experiment [2].
